Test results reported in PMC4227788, “Architecture and ssDNA interaction of the Timeless-Tipin-RPA complex” (Nucleic Acids Research, 2014).

Tests used:
[1] = target: T1, Tim-Tipin complex (mouse, UniProt Q9R1X4;Q91WA1 1-1134;1-278); assay: fluorescence anisotropy; Hill n = 1.2 ± 0.2; 30 C; 20 mM Hepes pH 7.5, 125 mM NaCl, 2 mM DTT, 0.01 mM zinc acetate (Buffer A); EMSA 15 min RT + 15 min 4 C; FA 15 min 30 C, 10 nM DNA; details: protein: recombinant; tags: His (Tim) and His-GST (Tipin), cleaved with 3C; copies: 1;1; label: 5'-FAM
T1 sequence 1: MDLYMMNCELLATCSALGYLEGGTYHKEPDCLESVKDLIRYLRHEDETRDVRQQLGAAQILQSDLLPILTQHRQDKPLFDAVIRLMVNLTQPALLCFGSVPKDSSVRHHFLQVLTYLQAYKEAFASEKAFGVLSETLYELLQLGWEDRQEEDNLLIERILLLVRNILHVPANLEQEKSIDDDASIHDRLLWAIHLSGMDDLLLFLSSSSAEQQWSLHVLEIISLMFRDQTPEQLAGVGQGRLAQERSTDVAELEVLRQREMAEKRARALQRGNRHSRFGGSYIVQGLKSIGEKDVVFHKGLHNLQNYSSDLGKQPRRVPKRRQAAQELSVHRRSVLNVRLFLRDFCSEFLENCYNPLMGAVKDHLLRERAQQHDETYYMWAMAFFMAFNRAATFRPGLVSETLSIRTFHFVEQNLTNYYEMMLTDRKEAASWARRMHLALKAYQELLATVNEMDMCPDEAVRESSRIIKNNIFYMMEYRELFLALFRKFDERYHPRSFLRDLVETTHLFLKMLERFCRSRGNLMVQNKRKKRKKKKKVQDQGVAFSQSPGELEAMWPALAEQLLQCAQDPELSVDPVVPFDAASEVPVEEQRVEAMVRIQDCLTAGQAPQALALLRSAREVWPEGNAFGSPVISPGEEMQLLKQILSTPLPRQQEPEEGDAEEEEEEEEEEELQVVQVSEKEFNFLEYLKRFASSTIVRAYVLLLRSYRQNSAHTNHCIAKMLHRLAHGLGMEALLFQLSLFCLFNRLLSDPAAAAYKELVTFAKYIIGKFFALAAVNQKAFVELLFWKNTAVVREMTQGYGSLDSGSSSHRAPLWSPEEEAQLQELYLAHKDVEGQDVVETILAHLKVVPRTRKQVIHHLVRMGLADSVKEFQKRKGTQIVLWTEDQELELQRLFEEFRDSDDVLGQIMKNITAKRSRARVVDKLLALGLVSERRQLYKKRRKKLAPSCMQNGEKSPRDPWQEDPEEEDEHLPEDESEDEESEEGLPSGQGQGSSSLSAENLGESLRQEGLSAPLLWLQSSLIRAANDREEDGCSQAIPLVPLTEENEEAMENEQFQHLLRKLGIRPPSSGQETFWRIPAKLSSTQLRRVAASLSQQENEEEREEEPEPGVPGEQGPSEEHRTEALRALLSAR
T1 sequence 2: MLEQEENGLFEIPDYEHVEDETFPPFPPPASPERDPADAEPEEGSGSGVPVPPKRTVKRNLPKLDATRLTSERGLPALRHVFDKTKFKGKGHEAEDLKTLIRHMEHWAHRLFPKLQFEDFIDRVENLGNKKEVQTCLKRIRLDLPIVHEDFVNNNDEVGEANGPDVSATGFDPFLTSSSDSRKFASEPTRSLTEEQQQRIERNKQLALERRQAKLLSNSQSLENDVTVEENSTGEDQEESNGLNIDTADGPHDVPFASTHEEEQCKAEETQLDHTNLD

[2] = target: RPA70/32/14 (RPA70ABC/32D-WH/14) (mouse, UniProt Q8VEE4;Q99KL9;Q9CQ71 190-623;43-270;1-121); assay: EMSA; 1 RPA with excess DNA, up to 2 RPA at substoichiometric DNA; 20 mM Hepes pH 7.5, 125 mM NaCl, 2 mM DTT, 0.01 mM zinc acetate (Buffer A); EMSA 15 min RT + 15 min 4 C; FA 15 min 30 C, 10 nM DNA; details: protein: recombinant; tags: His; copies: 1;1;1; label: 5'-FAM
Chain of RPA70/32/14 (RPA70ABC/32D-WH/14) (Q8VEE4 190-623, chain 1 of 3): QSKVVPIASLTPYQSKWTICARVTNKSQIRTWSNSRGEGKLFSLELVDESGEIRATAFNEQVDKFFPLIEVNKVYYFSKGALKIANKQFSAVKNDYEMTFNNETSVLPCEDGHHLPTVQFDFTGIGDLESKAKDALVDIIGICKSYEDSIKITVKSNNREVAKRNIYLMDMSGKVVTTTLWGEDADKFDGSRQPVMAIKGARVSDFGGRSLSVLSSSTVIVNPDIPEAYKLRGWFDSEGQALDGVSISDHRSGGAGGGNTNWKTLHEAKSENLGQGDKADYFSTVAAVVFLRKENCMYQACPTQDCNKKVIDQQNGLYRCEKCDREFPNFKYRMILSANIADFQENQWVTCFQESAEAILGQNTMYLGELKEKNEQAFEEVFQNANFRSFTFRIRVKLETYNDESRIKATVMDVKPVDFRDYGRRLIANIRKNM
Chain of RPA70/32/14 (RPA70ABC/32D-WH/14) (chain, as listed by the source, chain 2 of 3): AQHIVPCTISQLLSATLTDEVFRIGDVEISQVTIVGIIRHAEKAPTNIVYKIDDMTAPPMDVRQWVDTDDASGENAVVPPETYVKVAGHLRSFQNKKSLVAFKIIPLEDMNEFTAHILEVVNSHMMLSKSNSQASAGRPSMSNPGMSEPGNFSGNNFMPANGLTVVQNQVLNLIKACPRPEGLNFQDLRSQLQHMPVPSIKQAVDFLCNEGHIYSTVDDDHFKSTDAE
Chain of RPA70/32/14 (RPA70ABC/32D-WH/14) (Q9CQ71 whole entry, chain 3 of 3): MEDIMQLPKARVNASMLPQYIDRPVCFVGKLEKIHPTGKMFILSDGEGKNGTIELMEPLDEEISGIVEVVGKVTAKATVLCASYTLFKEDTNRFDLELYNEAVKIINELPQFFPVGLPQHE

B1: 30 nt FAM ssDNA (ssDNA)
DNA: ACGCTGCCGAATTCTACCAGTGCCTTGCTA
Question: Which results are given for B1?
Answer: Kd [1]: 1.7 ± 0.2 µM; binding result [2]: binds
